The target in experiment [1] is T1, human MU-1 Ig fusion protein (human, UniProt Q9HBE5 20-235).
T1 construct: A soluble fusion would most likely hold only the extracellular part; Immobilized on a Biacore chip; not shown: Ig part of the fusion
The experiment is described as follows: Biacore, MU-1 Ig fusion immobilized on chip.

The target in experiment [2] is T2, murine MU-1 Ig fusion protein (murine, UniProt Q9JHX3 20-236).
T2 construct: It includes the predicted leader 1-19, the transmembrane domain 237-253 and the cytoplasmic domain; Immobilized on a Biacore chip; not shown: Ig part of the fusion
The experiment is described as follows: Biacore, MU-1 Ig fusion immobilized on chip.

T1 sequence (Q9HBE5 20-235): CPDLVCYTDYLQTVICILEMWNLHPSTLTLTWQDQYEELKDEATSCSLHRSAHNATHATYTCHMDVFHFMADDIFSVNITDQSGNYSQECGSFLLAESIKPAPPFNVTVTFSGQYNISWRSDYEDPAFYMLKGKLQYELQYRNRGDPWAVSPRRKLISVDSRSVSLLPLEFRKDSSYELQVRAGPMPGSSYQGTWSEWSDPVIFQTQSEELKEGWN

B1: mIL-2 (ligand, mouse, UniProt P04351 21-169, looked up)
chain: APTSSSTSSSTAEAQQQQQQQQQQQQHLEQLLMDLQELLSRMENYRNLKLPRMLTFKFYLPKQATELKDLQCLEDELGPLRHVLDLTQSKSFQLEDAENFISNIRVTVVKLKGSDNTFECQFDDESATVVDFLRRWIAFCQSIISTSPQ
For the molecule B1, the binding result in experiment [1] and in experiment [2] was “no binding” each time.

B2: mIL-7 (ligand, mouse, UniProt P10168 26-154, looked up)
chain: ECHIKDKEGKAYESVLMISIDELDKMTGTDSNCPNNEPNFFRKHVCDDTKEAAFLNRAARKLKQFLKMNISEEFNVHLLTVSQGTQTLVNCTSKEEKNVKEQKKNDACFLKRLLREIKTCWNKILKGSI
With B2, the binding result in experiment [1] and in experiment [2] was “no binding” throughout.
